Measured values taken from patent US20180326084A1 (Genmab, published 2018).
Numbering of substitutions follows the chain as printed.

T1: human AXL with a cynomolgus monkey extracellular domain (ECD) (cynomolgus monkey (Macaca …, UniProt P30530 26-894))
T1 construct: Chimera on transfected HEK293T cells; also called cynomolgus AXL; cynomolgus AXL-ECD
T1 chain: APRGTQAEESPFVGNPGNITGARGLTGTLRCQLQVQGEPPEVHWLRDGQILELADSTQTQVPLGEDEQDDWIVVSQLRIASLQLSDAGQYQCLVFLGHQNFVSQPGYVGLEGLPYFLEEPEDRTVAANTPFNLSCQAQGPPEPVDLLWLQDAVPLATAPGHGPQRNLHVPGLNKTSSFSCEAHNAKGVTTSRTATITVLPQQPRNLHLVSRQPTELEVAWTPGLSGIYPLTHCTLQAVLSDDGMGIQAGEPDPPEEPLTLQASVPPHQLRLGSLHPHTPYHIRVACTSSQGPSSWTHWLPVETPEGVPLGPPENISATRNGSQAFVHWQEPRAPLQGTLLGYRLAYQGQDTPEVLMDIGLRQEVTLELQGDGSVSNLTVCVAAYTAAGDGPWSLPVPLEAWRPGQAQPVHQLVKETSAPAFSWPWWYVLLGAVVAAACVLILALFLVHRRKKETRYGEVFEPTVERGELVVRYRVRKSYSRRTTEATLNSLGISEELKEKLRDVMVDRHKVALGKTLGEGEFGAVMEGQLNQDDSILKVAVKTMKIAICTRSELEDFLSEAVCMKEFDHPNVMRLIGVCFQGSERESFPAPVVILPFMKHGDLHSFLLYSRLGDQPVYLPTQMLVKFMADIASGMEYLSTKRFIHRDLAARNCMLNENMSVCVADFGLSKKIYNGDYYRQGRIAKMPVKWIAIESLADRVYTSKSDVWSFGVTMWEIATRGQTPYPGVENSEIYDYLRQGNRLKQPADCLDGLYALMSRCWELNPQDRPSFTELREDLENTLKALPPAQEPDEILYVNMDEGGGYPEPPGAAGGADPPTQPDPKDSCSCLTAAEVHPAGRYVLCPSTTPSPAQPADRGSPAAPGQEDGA

T2: Homo sapiens AXL-Mus musculus FN1 domain (p33-AXL-mFN1) (human-mouse chimera, UniProt P30530 26-894)
T2 construct: Expressed in HEK293F cells; also called hsAXL-mmFN1; TH1021-mFN1
T2 chain: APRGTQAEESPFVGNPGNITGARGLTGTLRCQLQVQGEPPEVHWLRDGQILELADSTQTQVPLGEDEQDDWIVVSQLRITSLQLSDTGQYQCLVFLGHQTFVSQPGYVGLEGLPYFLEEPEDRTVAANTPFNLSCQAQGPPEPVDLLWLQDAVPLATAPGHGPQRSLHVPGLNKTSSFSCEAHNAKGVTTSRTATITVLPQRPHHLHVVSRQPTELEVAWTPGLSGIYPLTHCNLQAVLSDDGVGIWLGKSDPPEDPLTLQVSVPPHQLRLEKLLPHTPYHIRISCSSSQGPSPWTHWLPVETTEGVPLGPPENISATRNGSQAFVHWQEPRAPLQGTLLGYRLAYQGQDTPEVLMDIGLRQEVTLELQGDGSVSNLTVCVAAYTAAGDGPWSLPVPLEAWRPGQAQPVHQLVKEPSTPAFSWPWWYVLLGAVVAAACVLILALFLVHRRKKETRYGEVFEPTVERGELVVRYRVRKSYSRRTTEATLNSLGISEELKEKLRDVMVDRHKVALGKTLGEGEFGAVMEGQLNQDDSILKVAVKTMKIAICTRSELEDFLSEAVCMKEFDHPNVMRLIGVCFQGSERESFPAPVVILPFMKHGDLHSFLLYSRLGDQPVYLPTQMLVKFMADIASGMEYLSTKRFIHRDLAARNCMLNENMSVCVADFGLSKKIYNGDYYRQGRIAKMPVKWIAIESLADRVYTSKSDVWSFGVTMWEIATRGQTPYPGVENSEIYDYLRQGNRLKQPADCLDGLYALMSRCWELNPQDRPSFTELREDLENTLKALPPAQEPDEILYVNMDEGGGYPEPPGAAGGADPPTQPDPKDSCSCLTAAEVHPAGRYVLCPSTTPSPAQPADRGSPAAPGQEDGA

T3: Homo sapiens AXL-Mus musculus FN2 domain (p33-AXL-mFN2) (human-mouse chimera, UniProt P30530 26-894)
T3 construct: Expressed in HEK293F cells; also called hsAXL-mmFN2; TH1021-mFN2
T3 chain: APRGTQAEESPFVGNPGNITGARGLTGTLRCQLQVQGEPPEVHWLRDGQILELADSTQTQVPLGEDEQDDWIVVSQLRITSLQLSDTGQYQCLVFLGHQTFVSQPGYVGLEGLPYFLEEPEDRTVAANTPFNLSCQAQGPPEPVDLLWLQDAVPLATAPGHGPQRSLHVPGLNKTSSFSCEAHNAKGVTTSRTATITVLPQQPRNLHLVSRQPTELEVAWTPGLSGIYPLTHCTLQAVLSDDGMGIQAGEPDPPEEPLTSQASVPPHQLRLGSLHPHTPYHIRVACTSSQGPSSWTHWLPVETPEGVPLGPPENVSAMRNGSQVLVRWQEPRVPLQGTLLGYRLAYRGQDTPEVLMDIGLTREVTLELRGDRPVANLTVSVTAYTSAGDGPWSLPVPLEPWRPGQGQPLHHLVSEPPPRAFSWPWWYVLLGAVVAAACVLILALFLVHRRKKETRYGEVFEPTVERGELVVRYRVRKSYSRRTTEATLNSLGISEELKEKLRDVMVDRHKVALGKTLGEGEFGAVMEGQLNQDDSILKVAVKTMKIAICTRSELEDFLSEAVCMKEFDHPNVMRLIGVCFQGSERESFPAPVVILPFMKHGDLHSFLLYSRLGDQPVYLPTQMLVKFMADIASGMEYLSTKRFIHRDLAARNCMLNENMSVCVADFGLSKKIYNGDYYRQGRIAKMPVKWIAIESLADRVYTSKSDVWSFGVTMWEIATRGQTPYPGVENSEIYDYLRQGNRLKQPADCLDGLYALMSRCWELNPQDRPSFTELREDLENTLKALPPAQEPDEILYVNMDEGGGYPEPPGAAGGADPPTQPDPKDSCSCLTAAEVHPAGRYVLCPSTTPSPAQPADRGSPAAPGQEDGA

B1: IgG1-AXL-148 (antibody, V domains shown)
VH: EVQLLESGGGLVQPGGSLRLSCAASGFTFSSYAMTWVRQAPGKGLEWVSAISISGGSTFYADSVKGRFTISRDNSKNTLYLQMNSLRAEDTAVYYCRGYSGYVYDAFDFWGQGTMVTVSS
VL: DIQMTQSPSSLSASVGDRVTITCRASQGISNWLAWYQQKPEKAPKSLIYAASSLQSGVPSRFSGSGSGTDFTLTISSLQPEDFATYYCQQYNSYPLTFGGGTKVEIK
B2: IgG1-AXL-726 (antibody, V domains shown)
VH: QVQLQQWGAGLLKPSETLSLTCAIDGGSFSGYYWSWIRQPPGKGLEWIGEISHSGRTNYNPSLKSRVTISIDTSKNQFSLKLSSVAAADTAVYYCARFITMIRGAIITHFDYWGQGALVTVSS
VL: B1 VL with N31S, N92H, L96Y, G100Q, V104L
B3: IgG1-AXL-733 (antibody, V domains shown)
VH: QVQLVESGGGVVQPGRSLRLSCAASGFSFSTYAMHWVRQAPGKGLEWVAVISYDGDNKYSADSVKGRFTISRDNSKNTLYLQMNSLRAEDTAVYYCARGRKLGIDAFDIWGQGTMVTVSS
VL: AIQLTQSPSSLSASVGDRVTITCRASQGISSALAWYQQKPGKAPKLLIYDASSLESGVPSRFSGSGSGTDFTLTISGLQPEDFATYYCQQFNSYPFTFGPGTKVDIK
B4: IgG1-AXL-183 (antibody, V domains shown)
VH: QVQLQQWGAGLLKPSETLSLTCAVYGGSFSGYYWSWIRQPPGKGLEWIGEINQSGSTNYNPSLKSRVTISVDTSKNQFSLKLSSVTAADTSVYYCASGNWDHFFDYWGQGTLVTVSS
VL: DIQMTQSPSSVSASVGDRVTITCRASQGISSWLAWYQHKPGKAPKLLIYATSSLQSGVTSRFSGSGSGTDFTLTISSLQPEDFATYYCQQAKSFPWTFGQGTKVEIK

molecular target: T4, human AXL (full length) (human, UniProt P30530 26-894); experiment: flow cytometry, A431 cells, no Gas6
T4 construct: also called TH1021-AXL; TH1021-hAXL

Q: Which EC50 does the source give for B1 here?
A: 0.11 µg/mL

Q: With B2 as the binder, how does the EC50 read?
A: 0.32 µg/mL

Q: Which EC50 does the source give for B3 here?
A: 0.49 µg/mL

Q: With B4 as the binder, how does the EC50 read?
A: 0.69 µg/mL

Molecular target: T1, human AXL with a cynomolgus monkey …
Experiment: flow cytometry, HEK293T cells with human AXL carrying cynomolgus ECD

Q: How did the EC50 turn out when B1 was run?
A: 0.152 µg/mL

Q: With B2 as the binder, how does the EC50 read?
A: 0.349 µg/mL

Q: B3 was tested. Which EC50 did it give?
A: 0.254 µg/mL

Q: Which EC50 does the source give for B4 here?
A: 0.309 µg/mL

Molecular target: T2, Homo sapiens AXL-Mus musculus FN1 …
Experiment: flow cytometry, 1 µg/mL antibody, transfected HEK293F cells

Q: Does B1 bind?
A: binds

Q: Does B2 bind?
A: binds

Q: Does B4 bind?
A: binds

Molecular target: T3, Homo sapiens AXL-Mus musculus FN2 …
Experiment: as above

Q: Does B1 bind?
A: binds

Q: Does B3 bind?
A: binds

Q: Does B4 bind?
A: binds

molecular target: T4, human AXL (full length); experiment: flow cytometry, A431 cells pre-incubated with 10 µg/mL Gas6 (competitor)

Q: What does the source list for B1?
A: EC50: 0.2 µg/mL; maximal binding in presence of Gas6 (% of binding in absence of Gas6): 93%

Q: With B2 as the binder, how does the EC50 read?
A: 0.55 µg/mL

Q: And the “maximal binding in presence of Gas6 (% of binding in absence of Gas6)” value?
A: 97%

Q: What does the source list for B3?
A: EC50: 0.62 µg/mL; maximal binding in presence of Gas6 (% of binding in absence of Gas6): 93%

Q: Which EC50 does the source give for B4 here?
A: 1.19 µg/mL

Q: What about the “maximal binding in presence of Gas6 (% of binding in absence of Gas6)” value of the same binder?
A: 90%
